{
  "source": "the nanobody polyreactivity screen of Harvey et al. (2022)",
  "data": [
    {"experiment": "yeast display, Sf9 membrane polyspecificity reagent, FACS + sequencing; frameworks hold sequencing errors", "method_in_brief": "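Synthetic nanobody libraries on Saccharomyces cerevisiae BJ5465 were galactose-induced for 36–48 hours, stained 1 hour at 4 °C with 10% biotinylated, detergent-solubilized Sf9 membrane reagent and enriched on streptavidin microbeads. FACS then separated cells into low and high (top ~1%) gates by anti-HA (expression) and streptavidin (reagent binding) fluorescence. Genes were colony-PCR amplified, MiSeq 2 × 250 sequenced and CDR-length filtered. A clone's polyreactivity label is that of its gate of origin.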", "values": [
      {"sequence": "QVQLVESAGGLVQAGGSLRLSCAASGSIFRAYSMGWYRQAPGKERELVAAISWGGGSTSYADSVKGRFTISRDNAKNTVYLQMNSLQPEDTAVYYCNKVSFSKRRDYYWGQGTQVTVSS", "polyreactivity (PSR sort gate)": "high polyreactivity"},
      {"sequence": "QVQLVESAGGLVQAGGSLRLSCAASGSIFYEYAMGWYRQAPGKERELVATITWTDDSTYYADSVKGRFTISRDNAKNTVYLQMNSLKPEDTAVYYCNADLWPGNHDGYWGQGTQVTVSS", "polyreactivity (PSR sort gate)": "low polyreactivity"},
      {"sequence": "QVQLVESAGGLVQAGGSLRLSCAASGSIFYRYVMGWYRQAPGKERELVAAITSDGSTNYADSVKGRFTISRDNAKNTVYLQMNSLKPEDSAVYYCNARSYRGRFDYWGLGTQVTVSS", "polyreactivity (PSR sort gate)": "low polyreactivity"},
      {"sequence": "QVQLVESAGGLVQAGGSLRLSCAASGSIFYTYAMGWYRQAPGKERELVAAISGSGTSTYYADSVKGRFTISRDNAKNTVYLQMNSLKPEDTAVYYCATDGGAAWGRYYWDYGYWGQGTQVTVSS", "polyreactivity (PSR sort gate)": "low polyreactivity"},
      {"sequence": "QVQLVESAGGLVQAGGSLRLSCAASGSNFAIYDMGWYRQAPGKEREFVADISIVGRKKYADSVKGRFTISRDNAKNTVYLQMNSLKPEDTAVYYCTDQDSRDRKFYWGYTRGHWGQGTQVTVSS", "polyreactivity (PSR sort gate)": "low polyreactivity"},
      {"sequence": "QVQLVESAGGLVQAGGSLRLSCAASGSTFQDYVMGWYRQAPGKERELVAAISRSGGSTYYADSVKGRFTISRDNAKNTVYLQMNSLKPEDTAVYYCAAQQYTYFVPFLTYGEYDYWGQGTQVTVSS", "polyreactivity (PSR sort gate)": "low polyreactivity"},
      {"sequence": "QVQLVESAGGLVQAGGSLRLSCAASGSTFQYYAMGWYRLAPGKDRELVATITLIAGSTYADSVKGRFTISRDNAKNTVYLQMNSLNPEDTEVYYCAADDGGYETPELLYGGRGDDWGQGTQVTVSS", "polyreactivity (PSR sort gate)": "low polyreactivity"},
      {"sequence": "QVQLVESAGGLVQAGGSLRLSCAASGSTFYPYAIGWYRQAPGKERELVAAISSGGSTYYADSVKGRFTISRDNAKNTVYLQMNSLKPEDTAVYYCAADFYYAYYWGQGTQVTVSS", "polyreactivity (PSR sort gate)": "low polyreactivity"},
      {"sequence": "QVQLVESAGGLVQAGGSLRLSCAASGYIFGVYAMGWYRQAPGKERELVAAISYGVGSTYYADSVKGRFTISRDNAKNTVYLQMNSLKPEDTAVYYCASDVFFYVYEAYLLYYWGQGTQVTVSS", "polyreactivity (PSR sort gate)": "low polyreactivity"},
      {"sequence": "QVQLVESAGGLVQAGGSLRLSCAASGYIFWENAMGWYRQAPGKERELVAAITVSGGGTYYADSVKGRFTISRDNAKNTVYLQMNSLKPEDTAVYYCAADEDNPWLWFYYWGHGTQVTVSS", "polyreactivity (PSR sort gate)": "low polyreactivity"},
      {"sequence": "QVQLVESAGGLVQAGGSLRLSCAATGRTFYVNAMGWYRQAPGKERELVAAISSGDSSTYYADSVKGRFTSSRDNAKNTVYLQMNSLKPEDTAVYYCAAEVWVYFEYEYWGQGTQVTVSS", "polyreactivity (PSR sort gate)": "high polyreactivity"},
      {"sequence": "QVQLVESAGGLVQAGGSLRLSCAPSGRIFYYNAMGWYRQAPGKERELVAAITSGGSTNYADSVKGRFTISRDNAKNTVYLQMNSLKPEDTAVYYCAADYYFYVAGVHYDYWGQGTQVTVSS", "polyreactivity (PSR sort gate)": "low polyreactivity"},
      {"sequence": "QVQLVESAGGLVQAGGSLRLSCAPSGSTFNYYAMGWYRQAPGKESELGAAIDWSGGSTYYADSVKGRFTISRDNAKNTVYLQMNSLKPDDTAVYYCAARTYDYSYGSFDYWGQGTQVTVSS", "polyreactivity (PSR sort gate)": "low polyreactivity"},
      {"sequence": "QVQLVESAGGLVQAGGSLRLSCDASGRTFPYNAMGWYRQAHGKERELVAGITGGGSTYYADSVKGRFTISRDNAKNNVYLQMNSLKPEDTAVYYCAADRYFLYATYPDVEFNYWGQGTQVTVSS", "polyreactivity (PSR sort gate)": "high polyreactivity"},
      {"sequence": "QVQLVESAGGLVQAGGSLRLSCDASGSIFTTNAMGWYRQAPGKERELVAAITSTAGSTYYADSVKGRFKISRDNAKNTVYLQMNSLKPEDTAVYYCAATYNVGVKAWYDYWGQGSQVTVSS", "polyreactivity (PSR sort gate)": "high polyreactivity"},
      {"sequence": "QVQLVESAGGLVQAGGSLRLSCDASVSTFGYYAMGWYRQAPGKERELVAVIRRGGSTNYADSVKGRFTISRDNAKNTVYLQMNSLKPEDTAVYYCAKSQRGTVYSYYYWGQGNQVTVSS", "polyreactivity (PSR sort gate)": "high polyreactivity"},
      {"sequence": "QVQLVESAGGLVQAGGSLRLSCGASGRIFYYNTMGWYRQAPGKERELVAAITTNGGSTYYADSVKGRFTISRDNAKNTVYLQMYSLKPEDTAVYYCNRDRYPYYYAYNYWGQGTQVTVSS", "polyreactivity (PSR sort gate)": "low polyreactivity"},
      {"sequence": "QVQLVESAGGLVQAGGSLRLSCPASGSTFTFNAMGWYRQAPGKERELVADITSGGRTNYADSVKGRFTISRDNAKNTVYLQMNSLKPEDTAVYYCAARWWAHEYPGYDSWGQGTQVTVSS", "polyreactivity (PSR sort gate)": "low polyreactivity"},
      {"sequence": "QVQLVESAGGLVQAGGSLRLSFAASGRISGRYAMRWYRQAPGKEREVVAAITSRGGRTYYADSVKGRFTISRDNAKNTVYLQMNSLKPEDTAVYYCAKDAGSRTVREFGYWGQGTHVTVSS", "polyreactivity (PSR sort gate)": "high polyreactivity"},
      {"sequence": "QVQLVESAGGLVQAGGSLRLSSAASGIIFSEYAMGWYRPAPGKERELVAAISKSGGRTYYADSVKGRFTISGVNAKNTVDLQMNSLKPEDTAVYYCAARHAPILGDHGMKYWGQGTQVTVSS", "polyreactivity (PSR sort gate)": "high polyreactivity"},
      {"sequence": "QVQLVESAGGLVQAGGSLRLSSAASGRTFIVYAMGWYRQARGKERELVAGITRGSTNYADSVKGRFTISRDNAKNTVYVQMNCLKPEDTAVYYCAARWQWLNGYYYWGQGTQVTVSS", "polyreactivity (PSR sort gate)": "high polyreactivity"},
      {"sequence": "QVQLVESAGGLVQAGGSLSIICAASGFTFYGYTMGWYRQAPGKERELVAAITSDGDTNYADSVKGRFTISRDNAKNTVYLQMISLKPVDTAVYYCNADPGYYFYWWPGDYWGQGTQLTVSS", "polyreactivity (PSR sort gate)": "low polyreactivity"},
      {"sequence": "QVQLVESAGGLVQAGGSLSLICAASGFIFDSYAMGWSRQAPGKERELVAAIDKRGGRTYYADSEKGRFTISRDNAKNTVYLQMNSLKPEDTAVYFCAADDYTGYGYWGQGTQVTVSS", "polyreactivity (PSR sort gate)": "high polyreactivity"},
      {"sequence": "QVQLVESAGGLVQAGGSLSLSCAASGSIFWSYAMGWYRQAPGKERELVAVINWSGGSTYYADSVKGRFTISRDNAKNTVYLQMNSLKPEDTAVYYCNKDLGPTKRPFTFDYWGQGTQVTVSS", "polyreactivity (PSR sort gate)": "low polyreactivity"},
      {"sequence": "QVQLVESAGGLVQAGGSLSLSCAATGFIFYYNTMGWYRQAPGKERELVAAINSGGSTYYADSVKGRFTISRDNAKNTVYLQMNSLKPEDTAVYYCAKRYAVSSRYYYWGQGTQVTVSS", "polyreactivity (PSR sort gate)": "high polyreactivity"},
      {"sequence": "QVQLVESAGGLVQARGSLRLSCAASGRIFDVNAMGWYRQAPGKERELVAAISSGGNTKYADSVKGRFTISRDNAKNTVYLQMNSLKPEDTAVYYCNADGKAGGDSDYWGQGTQVTVSS", "polyreactivity (PSR sort gate)": "low polyreactivity"},
      {"sequence": "QVQLVESAGGLVQARGSLRLSCAASGRIFVPYAMGWYRQAPGKERELVAVISRGGSTYYADSVKGRFTISRDNAKNTVYLQMNSLKPEDTAVYYCAVASKLALQPWYDYWGQGTQVTVSS", "polyreactivity (PSR sort gate)": "high polyreactivity"},
      {"sequence": "QVQLVESAGGLVQEGGSLSLSCAASGITLTIYVMGWYRQAPGKEREMVAAISTSGGSTYYADSVKGRFTISRDNAKNTVYLQMNSLKQEDTAVYYCNATPLRRYYGRYLMDYWGQGTQVTVSS", "polyreactivity (PSR sort gate)": "high polyreactivity"},
      {"sequence": "QVQLVESAGGLVQSGGSLRLSCPASGRIFYLNAQGWYRQAPGKERELVAAITWSGGRTYYADSVKGRFTISRDYAKNSVYLQMNSLKPEDTAVYYCAAVPRPGPNTVLTPYGYWGQGTQVTVSS", "polyreactivity (PSR sort gate)": "high polyreactivity"},
      {"sequence": "QVQLVESAVGLVQAGGSLRLSSAASGFTFPLYAMGWYRQEHGKEREFVPVISRSGGSTYYADSVKGRFTISRDNAKNTVYLQMNSLKPEDTAVYYCAARLVPRSPERGNYDYWGQGTQVTVSS", "polyreactivity (PSR sort gate)": "high polyreactivity"},
      {"sequence": "QVQLVESCAGLVQAGGSLRLTCADSGSIFDFNAMGWYRQVPGKEREWVAAITSGGSTNYADSVKGRFTNSRDNAKNTVYLQMNSLKPEDTAVYYCAARPARGASQGGYVRPWWYDSWGQGTQVTVSS", "polyreactivity (PSR sort gate)": "low polyreactivity"},
      {"sequence": "QVQLVESCGALVQAGGSLLLSCAASGRTFVVNDMGWYRHAPWKERELVATINVSGGSTSYEDSVKGRFTISRDNGKYTVYLQMTSLKPEDTAVYYCNVDTYVEYPHDYWGQGTQVTVSS", "polyreactivity (PSR sort gate)": "low polyreactivity"},
      {"sequence": "QVQLVESCGCLVQAGGSLRLSCAASGSTFRKYAMGWYRQAPGKEREFVAAITWSTGTTYYADSVKGRFTISRDNAKNTVYLQMNSLKPEDTAVYYCAADSQPPHELYESIEHESWGQGTQVTVSS", "polyreactivity (PSR sort gate)": "low polyreactivity"},
      {"sequence": "QVQLVESCGGFVQAGGSLSLSCAASGSIYGRYGMGWYIQAPGKERELVAAITSGTRTNYADSVKGRFTISRDNAKNTVYLQMKSLKPEDTAVYYCYALRLRGNYEYGYWGQGTQVTVSS", "polyreactivity (PSR sort gate)": "low polyreactivity"},
      {"sequence": "QVQLVESCGGIVQAGGSHRLSCAASGSIFAWYAMGWYRQAPGKERELVAAITYTGGRTYYADSVKGRFTISRDIAKYTVYLQMISLNPEDTAVFYCAKDGPATVRRGYDYWGQGTQVTVSS", "polyreactivity (PSR sort gate)": "high polyreactivity"},
      {"sequence": "QVQLVESCGGLDQAGGSLRLSCAASALTFVDNAMGWYRQAPGKERELVAAISYNGGSTYYADSVKGRFTISRDNAKNTVYLQMNCLKPEDTAVYYCAADISVGRYGDMDYWGQGTLVTVSS", "polyreactivity (PSR sort gate)": "low polyreactivity"},
      {"sequence": "QVQLVESCGGLGQAGGSLRLSCSASGRIFGTYAKGLYRKAPGKERELLASISYSDGSTYADSVKGRFTISRDNAKNTVYLQMNSLKPEDTSVYYCAADVYYYAQSEDGYWGQGTQVTVSS", "polyreactivity (PSR sort gate)": "low polyreactivity"},
      {"sequence": "QVQLVESCGGLLQAGGSLRLSCAASGRTFTQYAMGCYRQAPGKERELVAAISWSDDITYYADSVKGRCTISRDIAQYTVYLQMNSLKPEDTAVYYCATEGYWGYDYDYWGQGTQVTVSS", "polyreactivity (PSR sort gate)": "high polyreactivity"},
      {"sequence": "QVQLVESCGGLVHAGGSLRLSCAASGRIIIFYAMGWYRQAPGKERELVASITSGASTYADSVKGRFTISRDNAKNTVYLQLNSLKPEDTAVYYCAKDYLDATPWFTWPTYSEFDYWGQGTQVTVSS", "polyreactivity (PSR sort gate)": "low polyreactivity"},
      {"sequence": "QVQLVESCGGLVPAGGSLRLSCAASGSTFRYAMGWYRQTPGKERELVDAITRSGGSTYYAYSVKVRFTISRDKAKNTVYLQMNSLKPEDTAVYYCNARRGKGKSYGDYGYGYWGQGTQVTVSS", "polyreactivity (PSR sort gate)": "high polyreactivity"},
      {"sequence": "QVQLVESCGGLVQAGCSLRLSCAASGSIRYYPMGWYRQAPGKERELVAGITRNGGSTYYADSVKGRFTISRDNAKITVYLQMNSLKPEDTAVYYFAAGFTTRRGEYNYWGQGTQVTVSS", "polyreactivity (PSR sort gate)": "high polyreactivity"},
      {"sequence": "QVQLVESCGGLVQAGGSLRLICAASGITFYRNAMGGYRQAPWKERELVAAITRRGGSTYYADSVKGRFTISRDNAKNTVYCQMNIVKPEDTAVYYCAAQDATRGDGYWGQGTQVTVSS", "polyreactivity (PSR sort gate)": "high polyreactivity"},
      {"sequence": "QVQLVESCGGLVQAGGSLRLSCAASAWYAIGWYRQAPGKEREFVAAITFSGSSTYYADSVKGRFTISRDNAKNTVYLQMNSLKPEDTAVYYCNADWWEWGQGTQVTVSS", "polyreactivity (PSR sort gate)": "low polyreactivity"}
    ]}
  ]
}
